experiment: soluble on expression in E. coli; label from the status in PepcDB or PDB records

Row | Sequence | soluble on expression in E. coli
1 | HHHHHHFADLVIQVIDELKQFGVSVKTYGAKGDGVTDDIRAFEKAIESGFPVYVPYGTFMVSRGIKLPSNTVLTGAGKRNAVIRFMDSVGRGESLMYNENVTTGNENIFLSSFTLDGNNKRLGQGISGIGGSRESNLSIRACHNVYIRDIEAVDCTLHGIDITCGGLDYPYLGDGTTAPNPSENIWIENCEATGFGDDGITTHHSQYINILNCYSHDPRLTANCNGFEIDDGSRHVVLSNNRSKGCYGGIEIKAHGDAPAAYNISINGHMSVEDVRSYNFRHIGHHAATAPQSVSAKNIVASNLVSIRPNNKRGFQDNATPRVLAVSAYYGVVINGLTGYTDDPNLLTETVVSVQFRARNCSLNGVVLTGFSNSENGIYVIGGSRGGDAVNISNVTLNNSGRYGVSIGSGIENVSITNISGIGDGINSPVALVSTINSNPEISGLSSIGYPTVARVAGTDYNDGLTLFNGAFRASTTSSGKIHSEGFIMGSTSGCEASVSKSGVLTSSSSKTSSERSLIAGSSTSEAKGTYNTILGSLGAVADEQFAALISASQSRASGNHNLILSSYGINTTGSYKVNGGFEKINWELDSLNGRIKARDTVTGGNTWSDFAEYFESLGGQVIETGYLVTLEKGKIRKAEKGEKIIGVISETAGFVLGESSFEWQGAVLKNEFGGIIYEEVTTEDGVKFKRPLPNPDFDPNKNYIPRSQRREWHVVGLLGQIAVRIDETVKQGHSIDAVGGVATDGDNFIVQEITTPYTKEKGYGVAIVLVK | soluble
2 | MGSDKIHHHHHHMKSDTEEKYLQQVNRVIDYINSHLNEPLRVETLAREVCLSEYHFHRIMRAYLHEPLATYIARQRVERAVMYLQMKNIRLAQVAEMVGYETPQSLSKAFKQFFGISPTAYRKRRAERYEEFSTLKKESLKPEILTEPELKLVYIRIIGRYGEEEPYIEAWRKLRDFLQINGLLTPSTRWIGISFDDPTVTKTEQCRFYACATVEHDVSPQGAFGMKTIPQGRYAVYTLRGSYSGLQEMYDRIYSHPLPTAFRDATSFEEYLNCEPDTEEKDYVTRIYIPIE | not soluble
3 | MTNEEPVPSTSSVLSAAEKNVKIETPSRKRKGLDIDALWRKKFKDVENQKSPEKSEKSEKTIKEEPLETHPSGERKLRSASKDSKSLSKETHNTISTRSSSSGTPRKKMEPEDVKPNIKMLKKSLPVSFQCSNLNDGTVGDASVMLDPTKISLHSSSVAYGEESQDEMEVIQHSTDDPNGTREEFDYNQIEYGNAVTPNGTYTLYAPDSNYAPYYQYSNNMQSSPQDNAPYLVPAPQSPVSIDDADSINLPNNQRASPATVNWLFENYEIGEGSLPRCELYDHYKKHCAEHRMDPVNAASFGKLIRSVFHNLKTRRLGTRGNSKYHYYGIRLKDSSTLHSMQHPQPQIIQNTYTPPMQLPQRDAYADTVNQVAAIKYMDVEIPDKRARKDNSSSSSSCRDSVSPCMDLPAQQTIQHTPVHSVIPSTQQPAPLHNNNVVSYVVTESDKAAMGKIDLPIVPFPDKDALMATIGFRKLGVGEEELNSLIDIYEILCREILALIKNIDFASVEDTWSKFWSGNFGVDRDHISALCTLDQVQDYIIEVDLALYQTIVDTLIPNVLLSELSTGMTQTCRTFAKNIDVYLRKSLMLANLGEFFVKKKIQAIKYLQQGLKRYTSLNHLAHASRGVLMKPEQVQQMYQDYIRVDINTVHQQAGWICGCDSVMVHHVNNAFKHNLQRMSAMEVWAEWLESIVDQVLAKYHDKPANVIANVGKQFLLNWSFYTSMIIRDLTLRSAMSFGSFTLIRLLADDYMYYLIESKIAKAGKQQLITVIRADKDWPLTTNPQEYIVVANDNDEDLDLEKAGLL | not soluble
4 | MPICTRLTAQIVKVAVNQPVAIRSSMWAKNNQNIHFMNLHVKKLEKLLLF | not soluble
5 | MHHHHHHSSGRENLYFQGPQDLMVTCTAPVNIAVIKYWGKRDEALILPINSSLSVTLHQDQLKTTTTVAISKDFTEDRIWLNGREEDVGQPRLQACLREIRRLARKRRSTEDGDTLPLSLSYKVHVASVNNFPTAAGLASSAAGYACLAYTLAQVYGVEGDLSEVARRGSGSACRSLYGGFVEWQMGEQADGKDSIARQIAPEWHWPQLRILILVVSADKKQTGSTVGMQTSVETSTLLKFRAESVVPERMKEMTRCIQEQDFQGFAQLTMKDSNQFHATCLDTFPPISYLNDTSRRIIQLVHRFNTHHGQTKVAYTFDAGPNAVIFTLEDTVAEFVAAVRHSFPPAANGDKFLKGLQVAPVLLSDELKAALVVEPSPGGVQYIIATQVGPGPQVLDDTHDHLLGQDGLPQRDL | soluble
6 | MLSRRGKMKRIKVLRNGPYLVEGSVPLYEEVIVTDEEGHTREFVERRQFPLKERYVLCRCGESGNKPYCDGTHIRTGFDGTETASLEPYIERARVFRAGDLELTDVPELCDHSRFCLRAGGIRELLRKGDRESIQIAIEEAMICPSGRLVLWDRKTGKPYERDYEKSIVVIHDKQKRCEGPLWVRGGIPIESADGREYEVRNRVTLCRCGLSENKPFCDGSHWMTAEEKLEFKRKWGIELEHHHHHH | not soluble
7 | MKNQLGQLALEQAKTFGGKLEVQPKVDIKTKHDLSIAYTPGVASVSSAIAKDKTLAYDLTTKKNTVAVISDGTAVLGLGDIGPEAAMPVMEGKAALFKAFAGVDAIPIVLDTKDTEEIISIVKALAPTFGGINLEDISAPRCFEIEQRLIKECHIPVFHDDQHGTAIVVLAAIFNSLKLLKKSLDEVSIVVNGGGSAGLSITRKLLAAGATKVTVVDKFGIINEQEAAQLAPHHLDIAKVTNREFKSGTLEDALEGADIFIGVSAPGVLKAEWISKMAARPVIFAMANPIPEIYPDEALEAGAYIVGTGRSDFPNQINNVLAFPGIFRGALDARAKTITVEMQIAAAKGIASLVPDDALSTTNIIPDAFKEGVAEIVAKSVRSVVLKS | not soluble
8 | MGSDKIHHHHHHMVNEQRVLDTFLELVQIDSESKEEAQICAHLKETFTALGCDVFEDDASSKTEHKGNNLIITLPATKDGVDKIYFTSHMDTVFPGQGIKPIIEDGYVKTDGTTILGADDKTGLASLIELVHVLNETNQPHGKIQFVITVGEESGLVGAMVLDPSKIDADYGFALDSDGKVGDIITAAPTQAKVNAKIYGKTAHAGVAPEKGISAITIAAKAIAKMPLGRIDEETTANIGRFSGGGPSTNIVCDYVEIFAEARSLVAPKMEAQTAKMKAAFEEVAAEFGGRAEVEVKVMYPGFKFEDGDQVVEVAKAAITQLGRTPRLLHSGGGSDANVIAGFGIPTVNLAVGYEDIHTTNEKMPIEELVKTAELCVTLVDYITNK | not soluble
9 | LGFFNRIEKTEKDKSQIDFGSIHGTGWLIDWKEVDKKDKKANKFTVYLATNLHVIQALKNREDHPPYNQFDINFVRTVDFRIGKYTDVKQFVAPS | not soluble
10 | MGSDKIHHHHHHMYPAKHYQTNEENITHYHEIIESNPLATLLFSHESEIDVSHIPCHFSLKTSNTNTQQLERSTLTAHVSNHHPLAKVLQRSSTVALQLVFHGEDAYISPRDVSKQHSHAQSVPTWNYAKVHVSGIAHEVKDSDDKYQYMAASTAYFEQRRSTNNIDKPWSIEEAPAIAIKKMLNAITIFSINITHLEGRFKLSQNKSKAVQKEIAEQLTTRGVEELGQLMLAL | not soluble
11 | GMKSSQPFIYEAHAARVVFGAGSSSQVAAEVERLGAKRALVLCTPNQQAEAERIADLLGPLSAGVYAGAVMHVPIESARDATARAREAGADCAVAVGGGSTTGLGKAIALETGMPIVAIPTTYAGSEVTPVYGLTEAGTKRTGRDPRVLPRTVIYDPALTVGLPRGLSVTSALNAIAHAAEGLYARDANPVMSLMAEEGIRALAAGIPAVFNDPADLDARSQCLYGAWLCGTVLGGVGMALHHKLCHTLGGSFNLPHAETHTIVLPHALAYNAAAVPEAMARIRRATGAGEQSAAATLFDLAQRHGAPVALRDIGMREEDLDRAADIALASPYWNPRPIEREPIRALLQAAYEGVRPD | soluble
12 | PQFEKIEGRMIRILYLLVKPESMSHEQFRKECVVHFQMSAGMPGLHKYEVRLVAGNPTDTHVPYLDVGRIDAIGECWFASEEQYQVYMESDIRKAWFEHGKYFIGQLKPFVTEELV | soluble
13 | MTDDNDNKNTELPMSASEVTAGTKIVRRAANQKPSRVVADICVVGSGAAGMSAAIEGARAGRKVVLVDSLPALGGQAVNSIIGTFCGLFSNGSDGYQFTHGIADDLLGDLGAQENALFYRRGPHTTVVYYDEVALGRWVEKAMLAAGVTVIVGAVMRNVRVAGRRVTGIDLSTRYGDVEVEANGFVDASGDAALVWQAGFACREPDDGPIYGTQMLIVENIDESKVPSREELPARMREKAGDYGLLRREGLSFVIPGRGVAAMNMTHVETPLEPLEASRKGIEGKDQADRAFAFLRNEFPACFGKARIRAYGLPGIRQTRWIVGRQQLSVDDVRAGTKFEDAIGRTAWPIELHDHGSGHHWHIFDKDHVHYVPFGSLTPQEAENIVAAGRCIDADKAALSSVRVMGPCMAMGAAAAHALDLAGSGSVHQIDIDALKWRVRDNLERTDLEHHHHHH | not soluble
14 | MAHHHHHHMMRSSFVHKAAAAAAGGGMTATSSDHKMASLHKLLTGEVQFRNNALLKTCNIEHNFGATWKSDIEAYAKCLPADERSCLERQVARVMLTRYTTRELAEYCGEGPEHVDAVAREANIAQAKAHAQQYGADKLEAYVKAESKNAGWSEAETKSFLDAVKAAK | soluble
15 | MDISSTEIWDAIRRNSYLLYYQPKVDAKTNKIIGFEGLVRLKTATTILAPIDFFDDIVLLNATREMQDFVAETAIKQINQLGGRFSISINIPAHYVASSTYMTFLHDYVKEHLKYPECLEIEIIERGEITELAIADKNLRKIKDLGVKVSMDDFGKGYSSLAYLRSLPIDIVKTDMSFIALLKTDRKQQIIIRAIVNLCHDLGGKVVTEGVEDMEQVEKLREMKVDYFQGYYFSRPLPMEEIKQKYSIV | soluble
16 | MIKKCLFPAAGYGTRFLPITKTIPKEMLPIVDKPLIQYAVEEAMEAGCEVMAIVTGRNKRSLEDYFDTSYEIEHQIQGTNKENALKSIRNIIEKCCFSYVRQKQMKGLGHAILTGEALIGNEPFAVILADDLCISHDHPSVLKQMTSLYQKYQCSIVAIEEVALEEVSKYGVIRGEWLEEGVYEIKDMVEKPNQEDAPSNLAVIGRYILTPDIFEILSETKPGKNNEIQITDALRTQAKRKRIIAYQFKGKRYDCGSVEGYIEASNAYYKKRLLEHHHHHH | soluble
17 | MKKVLLIVISILFGSVLVGCQMNESNKTQDKIQSITGSVAYRERIALPDNAVVTVYLQDVSLADAPATVIAKQNFITNGMQVPLEFNLAYDSRKIKASHRYSVSARIEVDGKLRFITDTHYGVITDPEATKHVPMMLIGVHGE | not soluble
18 | MGSDKIHHHHHHMTRYQHLATLLAERIEQGLYRHGEKLPSVRSLSQEHGVSISTVQQAYQTLETMKLITPQPRSGYFVAQRKAQPPVPPMTRPVQRPVEITQWDQVLDMLEAHSDSSIVPLSKSTPDVEAPSLKPLWRELSRVVQHNLQTVLGYDLLAGQRVLREQIARLMLDSGSVVTADDIIITSGCHNSMSLALMAVCKPGDIVAVESPCYYGSMQMLRGMGVKVIEIPTDPETGISVEALELALEQWPIKGIILVPNCNNPLGFIMPDARKRAVLSLAQRHDIVIFEDDVYGELATEYPRPRTIHSWDIDGRVLLCSSFSKSIAPGLRVGWVAPGRYHDKLMHMKYAISSFNVPSTQMAAATFVLEGHYHRHIRRMRQIYQRNLALYTCWIREYFPCEICITRPKGGFLLWIELPEQVDMVCVARQLCRMKIQVAAGSIFSASGKYRNCLRINCALPLSETYREALKQIGEAVYRAME | not soluble
19 | KQLLTLKIKCSNQPERQILEKQLPDSMTVQKVKGLLSRLLKVPVSELLLSYESSKMPGREIELENDLQPLQFYSVENGDCLLVR | soluble
20 | MLQITKSLSIALTEIEMTALRSQGAGGQNVNKVASAIHLRFDIGASSLPDVYKERLLNLNDQRITKDGIVVIKAQSHRTQEQNREEALKRLQGLISSVITLPKPRRPTKPTRSSQRKRLDAKTKRSAVKALRKSIDELEHHHHHH | not soluble

Source: the DeepSol protein solubility set
